Measured values as given in patent US20200377604A1 (Genentech, published 2020).

Biological target: T1, knob Fc F241R/F243S (Homo sapiens (Human), UniProt P0DOX5 223-449 = IgG part, F241R; F243S)
T1 construct: Positions are EU numbers; the entry starts at 221; also called Knob F241R/F243S; F241R/F243S mutant knob
Assay: SPR (BioRad ProteOn), immobilized ligand Knob F241R/F243S, analyte Knob F241S/F243R at 6.25-200 nM
Experimental: FIGS. 11A-11E are a series of the surface plasmon resonance (SPR) spectra curves from experiments using an immobilized ligand. The analyte was passed over the ligand and the homodimerization was monitored. Analyte concetrations were tested at 6.25 nM, 12.5 nM, 25 nM, 50 nM, 100 nM and 200 nM. The ligands were: (A) The knob wild-type, (B) hole wild-type, (C) knob F241R/F243S, (D) knob F241S/F243R, and (E) hole F241S/F243R.
Using a BioRad ProteOn™ system, knob wild-type, hole wild-type, knob F241R/F243S, knob F241S/F243R, and hole F241S/F243R ligands were immobilized on an NHS activated sensor. The analyte, knob F241S/F243R, was passed over the sensor in 25 mM Tris 150 mM NaCl 0.05% Tween-20 pH 8.0. Analyte concentrations were 200 nM, 100 nM, 50 nM, 25 nM, 12.5 nM, and 6.25 nM. The ProteOnM chip was regenerated between each analyte concentration using 10 mM Glycine pH3. […] The Kd for the heterodimers is in the single digit nanomolar range in both cases.

B1: knob Fc F241S/F243R (other, name in EU numbering)
chain: DKTHTSPPSPAPELLGGPSVSLRPPKPKDTLMISRTPEVTCVVVDVSHEDPEVKFNWYVDGVEVHNAKTKPREEQYNSTYRVVSVLTVLHQDWLNGKEYKCKVSNKALPAPIEKTISKAKGQPREPQVYTLPPSREEMTKNQVSLWCLVKGFYPSDIAVEWESNGQPENNYKTTPPVLDSDGSFFLYSKLTVDKSRWQQGNVFSCSVMHEALHNHYTQKSLSLSPGK
notes: Positions are EU numbers; the entry starts at 221; This was the analyte in the SPR experiment; also called Knob F241S/F243R; F241S/F243R mutant knob
binding result: no binding (tested: 200 nM)
